Assay results as given in paper PMC7907450.

Tests used:
[1] = tested on: 70S ribosome pretranslocation complex, deacylated tRNAfMet in P site, A site; test: nitrocellulose filter binding, koff/kon; details: 7 mM Mg2+, aminoacylated with fMet-Val dipeptide, MST: buffer TAKM7 (7 mM Mg2+; full composition not in material), 30 min at 37 C, A-site peptidyl-tRNA: buffer TAKM with 7-20 mM Mg2+
[2] = tested on: 30S ribosomal subunit initiation complex with IF1, IF2, IF3 and elongator BPY-Phe-tRNAPhe; test: MST; details: 60 uM amicoumacin A, MST: buffer TAKM7 (7 mM Mg2+; full composition not in material), 30 min at 37 C, A-site peptidyl-tRNA: buffer TAKM with 7-20 mM Mg2+, nitrocellulose …
[3] = tested on: 30S ribosomal subunit initiation complex with IF1, IF2, IF3 and BPY-Met-tRNAfMet; test: MST; details: MST: buffer TAKM7 (7 mM Mg2+; full composition not in material), 30 min at 37 C, A-site peptidyl-tRNA: buffer TAKM with 7-20 mM Mg2+, nitrocellulose …
[4] = tested on: 30S ribosomal subunit initiation complex without IF3 (IF1, IF2, BPY-Met-tRNAfMet); test: MST; details: MST: buffer TAKM7 (7 mM Mg2+; full composition not in material), 30 min at 37 C, A-site peptidyl-tRNA: buffer TAKM with 7-20 mM Mg2+, nitrocellulose …

Substance | Kd ([1]; 30 uM amicoumacin A) | Kd ([1]; no antibiotic) | Kd [2] | Kd ([3]; 30 uM edeine) | Kd ([3]; 60 uM amicoumacin A) | Kd ([3]; 60 uM kasugamycin) | Kd ([3]; no antibiotic) | Kd ([4]; no IF3, amicoumacin A) | Kd ([4]; no IF3, no antibiotic)
fMet-[14C]Val-tRNAVal | 461 nM | 688 nM |  |  |  |  |  |  | 
model mRNA AUG (Met-Phe) |  |  | 940 nM | 568 nM | 169 nM | 59 nM | 18 nM | 77 nM | 1280 nM
model mRNA UUC start codon |  |  |  |  | 584 nM |  |  | 587 nM | 1270 nM
